The values that follow come from US20200132689A1 (ARIZONA BOARD OF REGENTS ON BEHALF OF THE UNIVERSITY OF …, published 2020).

In this experiment the target is T1, nicotinamide phosphoribosyltransferase (NAMPT) (Homo sapiens (Human), UniProt P43490 1-491).
T1 construct: also called PBEF; visfatin
The experiment can be described thus: method not stated.

Substitutions are numbered along the chain they refer to.

T1 sequence (P43490 whole entry): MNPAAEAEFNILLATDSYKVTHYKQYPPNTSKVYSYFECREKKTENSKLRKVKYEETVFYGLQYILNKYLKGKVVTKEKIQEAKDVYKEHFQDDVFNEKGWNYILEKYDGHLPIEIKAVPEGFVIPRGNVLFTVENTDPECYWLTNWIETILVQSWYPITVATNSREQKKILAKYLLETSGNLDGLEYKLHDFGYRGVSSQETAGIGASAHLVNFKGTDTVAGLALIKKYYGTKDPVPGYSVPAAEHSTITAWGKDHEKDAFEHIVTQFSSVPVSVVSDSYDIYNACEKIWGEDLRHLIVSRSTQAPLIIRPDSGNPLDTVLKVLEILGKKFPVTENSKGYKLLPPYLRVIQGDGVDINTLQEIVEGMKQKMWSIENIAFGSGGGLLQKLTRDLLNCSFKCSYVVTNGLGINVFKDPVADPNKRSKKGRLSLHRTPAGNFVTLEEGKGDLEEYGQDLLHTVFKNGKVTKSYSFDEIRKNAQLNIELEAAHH

B1: murine anti-NAMPT mAb AL303 (antibody, V domains shown)
VH: QVQLQQPGADLVKPGASVKLSCKASGYTFTSYWMQWVKQRPGQGLEWIGEIDPSNSYTNYNQKFRGKATLTVDPSSSTAYMQLSSLTSEDSAVYYCARGGYWGQGTTLTVSS
VL: DIVMTQAAFSNPVTLGTSASISCRSSKSLLHSNGITYLYWYLQKPGQSPQLLIYQMSNLASGVPDRFSSSGSGTDFTLRISRVEAEDVGVYYCVQNLELPYTFGGGTKLEIK
Usually Kd stands for the concentration at which binding is half-saturated. As to B1, the affinity, expressed as Kd, was 6 nM.

B2: murine anti-NAMPT mAb AL310 (antibody, V domains shown)
VH: QVQLQQSGAESVMPGASVKLSCKASGYTFTSYWMHWVKQRPGQGLEWIGEIDPSDSYTNYNQKFKGKSTLTVDKSSSTAYMQLSSLTSEDSAVYYCAKSNYVVPWYFDVWGTGTTVTVSS
VL: B1 VL with V94A, Y101W
Molecule B2 showed a dissociation constant (Kd) of 9 nM.
